Source: a protein production outcome set (Wang et al. 2014)

Assay: label from the status in PepcDB records

MSLTGFWHDDFNNATPNDICVAIRSEAADAGIAQAIMQQLEEALKQLAQGSGSSQALTQVRRWDSACQKLPDANLALISVAGEYAAELANQALDRNLNVMMFSDNVTLEDEIQLKTRAREKGLLVMGPDCGTSMIAGTPLAFANVMPEGNIGVIGASGTGIQELCSQIALAGEGITHAIGLGGRDLSREVGGISALTALEMLSADEKSEVLAFVSKPPAEAVRLKIVNAMKATGKPTVALFLGYTPAVARDENVWFASSLDEAARLACLLSRVTARRNAIAPVSSGFICGLYTGGTLAAEAAGLLAGHLGVEADDTHQHGMMLDADSHQIIDLGDDFYTVGRPHPMIDPTLRNQLIADLGAKPQVRVLLLDVVIGFGATADPAASLVSAWQKACAARLDNQPLYAIATVTGTERDPQCRSQQIATLEDAGIAVVSSLPEATLLAAALIHPLSPAAQQHTPSLLENVAVINIGLRSFALELQSASKPVVHYQWSPVAGGNKKLARLLERLQGHPHHH
protein production: not failed

MRTVSHPTPLRRAPVQRRSAERLTRILDACADLLDEVGYDALSTRAVALRADVPIGSVYRFFGNKRQMADALAQRNLERYAERVTERLTEAGDGGWRGALDTVLDEYLAMKRTAPGFSLIDFGNQIPVGDRHAVPNHRVAERLTELLSGYLGRRPDDDLRRVFLVAVETADTLVQLAFRVAPDGDEKIIEEARELLRAYLGRVLD
protein production: not failed

MRYKRRFVTVYRDFPEGCGVPSKPISNADESFMQSKFNKDGIVLQAHEDFSKITKESSNHSETENSRTEDLLDEGSVLDSNGSVTDCQEDREREMSSVKKRCLSSHNLTSEVETERIGIVLGLAAKAKCPWRQPKIRGSRQVNDLN
protein production: failed

MKRAFAAVAATVCLFLLVQLGSLALVEPFMSAGFQAVEDPSDPTNSLLYIIAILVATGVMLAAMKFGVDRLLQGLVLFAAVFISFYVFTVVVPPVVAVAGLNLVAVALALALGVGLLVYPEWYVIDAAGIVMGAGAAGLFGISFGLLPALVLLVVLAVYDAISVYGTEHMLALASGAMDLRLPVIFVVPLTLSYSFLDADNPESLEDDTPESDAEAEPDEGDDVSTATGDAEPVDTMAEDADTDADSDADADDPAAAEAAPDEHADPFARDAFFIGLGDAVIPTILVASAAFFRPGGVELLSVPGIALTVPALGAMVGTIAGLLALMWFVMKGRAHAGLPLLNGGAIAGYLLGAAAVGIPVVEALGVAPYL
protein production: failed

MIRKLDKAEFQQATTLALEVYLQCGQDDFEDEGLESFKSFIFNDKLMNELCIYGAFEENKLIGIMGTKNEGKHISLFFIKKEFHRKGIGKQLFDYSQCDCPANEITVNSSTYAIRFYESLGFEKTNDRQQTNGISYTPMKLISNKLEHHHHHH
protein production: not failed

MENWVIQIIERLGYLGIAFLMFLDNVFPPIPSEIIMPSAGYTASRGQLQIIGVIVAGSLGSILAAAILYALGRQISHAALFRWTDRYGKYLLIQTKDLQIALEWFEKYGHRIVFFGRMIPAVRSLISIPAGMSRMPFWKFMLYSSLGTVIWTTFLAGVGFYFGENQAFMFSIMHRVGYLILAITLMVSVWWIYHKFYKKR
protein production: failed

MDKLNKITVPASQKLRQLQKMVHDIKNNEGGIMDKIKKLKVKGPPSVPRRDYALDSPADEEEQWSDDFDSDYENPDEHSDSEMYVMPAEETGDDSYEPPPAEQQTRVVHPALPFTRGEYVDNRSSQRHSPPFSKTLPSKPSWPSAKARLASTLPAPNSLQKPQVPPKPKDLLEDEADYVVPVEDNDENYIHPRESSPPPAEKAPMVNRSTKPNSSSKHMSPPGTVAGRNSGVWDSKSSLPAAPSPLPRAGKKPATPLKTTPVPPLPNASNVCEEKPVPAERHRGSSHRQDTVQSPVFPPTQKPVHQKPVPLPRFPEAGSPAADGPFHSFPFNSTFADQEAELLGKPWYAGACDRKSAEEALHRSNKDGSFLIRKSSGHDSKQPYTLVAFFNKRVYNIPVRFIEATKQYALGKKKNGEEYFGSVVEIVNSHQHNPLVLIDSQNNTKDSTRLKYAVKVS
protein production: not failed

MSYSKEVNRYVFPLVATNLVQVLIGQISLHFAVDNSNAALSGISVIQNFLFAFGGILGAFSLSFNIRGAKAFYNKEYQRFKNLLKSSLLIDIGIGLSFILFCLGLSRPFLKVFYGFDGQLLELSTTYFKIMSPYILLTLLIFLFSNLLKIEKKTKPIFWIGTLSSVLDVLLNYYLVPLLGIRGAAISSILSLLVIVLGYFIFVKSLVFQALQEASTSKLELIRFGIPLSIQEILESVLFIMAFDAFMGRQGLRILSIYAVVSQLFAIVRTPAFMYAGSIAIFLPEARKKEDEKALIATIFRNSYAVIFIFACLVTVFSNPFAHFLSDEVIDNVLPFTLYTVVVMGATPLYESSKMLLQSNDDEQWVLKITSIVNILSILILLVLQLMGKQTYQSLYGIYGLSLIVLSILFIKRNSEKRVSSRKMTM
protein production: failed

LKYMYKIDDDKKYILYCPTWRGNQRKEVTQINLKDLLKYLPENYEIIVKLHPNESHLRTRYNQIDNRIHCYFNELVDIQELYILSECMITDYSSTIFDYIHLNKPVFILQEDEQQYKQSVGFYFDLFEVGDFLKASLNERMLAKQICSTDYINYSKVVHRLMKQDSSKSSEKLMAEILG
protein production: failed

MQVIKQKLTATCAQLTGYLHQPDTNAHQTNLPAIIIVPGGSYTHIPVAQAESLAMAFAGHGYQAFYLEYTLLTDQQPLGLAPVLDLGRAVNLLRQHAAEWHIDPQQITPAGFSVGGHIVALYNDYWATRVATELNVTPAMLKPNNVVLGYPVISPLLGFPKDDATLATWTPTPNELAADQHVNSDNQPTFIWTTADDPIVPATNTLAYATALATAKIPYELHVFKHGPHGLALANAQTAWKPDANQPHVAHWLTLALEWLADNR
protein production: not failed

MAFAEGALDALKVAFQEGARSLVLLSPVLFRDALLSARLGALRFGLERGGVEGFARVGRALFFGALSAGSEEVYEAWKEGLSEAGLWRWLGRLEALADERRWLRGTAARVLVVQGALDAFTPPLHGAKVADFAKGEALRFVVDEAGHLVPWEAQEEVRDLVADFLLGEGFRPLPGGLAL
protein production: failed

MLELKNENLTVQFSELGGQIISIKDKDGIEYLWQGEPTYWSGQAPVLFPICGSLRNDWAIYEPAERPTFTGTIPRHGLVRKMLFKNVKSTENSLEFSISSNEETVKNYPFEFELSINYSLFGKTIRIEYRVKNLEGHRKLPYFIGGHPGFNCPLLDGESYEDYYLEFEKVESCTVPRSFPETGLLDLRDRRPFLENQKTLDLSYKLFEYDAITLDQLASRKVTLKSKNHQKKLSIAFDDFPYLVIWSTTNQSPFIALEPWSGLSTSLEESDIFNAKRNISYVAPKEVDTKYFDIIIE
protein production: failed

MAQAQTQGQEEEQKKKILIVVTHGPEDLDRTYAPLFMASISASMEYETSVFFMIKGPKLLDKKWQEEERKKGGNPFIHFFDMAKENGVKMYVCVQSLKDMCHMKEDDVVEGIELVGGSTLIDLTLEADRTLFF
protein production: not failed

MSLDKVLEDEVVEDTGESQVFNLLNPEFVDFDTCLDPITNELPTSETTKPAGELRREKTPAKKGNSNSSSVDHRFTSASRAFTQKKLDDLKSLFVSLASKSHSNDQYVSYPVFQEYFGLSGSLGERIFDMVTQHRKDDKMTFEDLVIAKMTFEDLVIAKVHT
protein production: failed

MAIEGKTTDVANKRIRLGMVGGGSGAFIGGVHRMAARLDNRFDLVAGALSSTPEKSLASGRELGLDSERCYGSFEEMAEKEALREDGIEAVAIVTPNHVHYPAAKAFLERGIHVICDKPLTSNLEDAKKLKDVADKADALFILTHNYTGYPMVRHARELVEAGALGNIRLVQMEYPQDWLTEAVEQTGAKQAVWRTDPAQSGVGGSTGDIGTHAYNLGCFISGLEADELAADVHTFVEGRRLDDNAHVMMRFKPKGGKQPARGMLWCSQVAVGHENGLKIRLYGDKAGLEWTQADPNYLWFTKLGEPKQLITRGGAGAGAAAARVTRIPSGHPEGYLEAFATIYTEAAHAIEARRTGSALDKAVIYPTVDDGVKGVAFVTACIESGKKNGGWVKL
protein production: failed

MTSPASCSPPNEKRTGSPFPPESRSLPSTMEMTMNTIFRPAPHPLPDAPFYTPLGNECVLFESAWVRQLPLLLKGPTGCGKTRFVSHMAAKLGLPLSTISCHDDLAAADLTGRYLLKGGETVWMDGPLTRSVRQGGICYLDEIVEARKDVAVVLHPLTDDRRILPLERTGEVLEAPSGFMLVVSYNPGYQNLLKSLKPSTRQRFVAIEFDFLPKEQEIAVVSHESGLDARDVEPLVDLAHRLRGLKGHDLEEGVSTRLLVYCASLIDTGLPARQAVRATMIEPLTDEPDVKAALHEVADAIIRLEHHHHHH
protein production: failed

MLPIASGNDDRNLIRYVDGGRFDEIMLTGDLTGLSSFLTNAGPNARDDFDLTVLMRAAEAGNLMVVARLLDLGANPRLTNPRGVTALHIAAIAGDDGIVECLIDAGAEVDAVDDQGRTPLWNAAAHHLPDSAVVDVLLRAGANVNLRDCNGVSPEDML
protein production: failed

MEELDEKLANRVQVSKRAVAKIVQVIDRLMQRNEKITHVLKGDSLASAGSGSGAGAGGEEEQQQASGDAETTTSSAGVHALEETLKQTHIEIMSENHKLQNLNTSLHEKFHTMSLKMKEYQDAHTAKETENAELKNQIDELQYDLEKIHCRNDKLENHLAEAIEKLKAYHQIYGDPNKSTNSAKTPTTTGSGGATTSVNSQLLEELQKELEEYRELAN
protein production: failed

MKVAGDKIKQARKLKKITQSELANGICTQATISNIENRNLCDSLDIFSSICLRLDLEVEECMMISEEKKIENLLNKVEDLSLRLFHLEAYNLLQEVPEGLILSNNELTTKLLYYKGITCLLGKKDKAEALFYLYRGAEIDRKVNIYNILSLNALGTLYELEKDMRKAQVYYEKSLQELEQFKLECSLERCRIYYNSAKFYSEMKDYQKSVILSEKGIQICRDKHSIYLLDYLLYEKAFNKQMLGEDTADDYRQAYYFTQFFGNTEVLQYIEKDMKAFNISY
protein production: failed

MPIFSFLLFVFISSFTPGPNNFLAMTYANQHGLKRSINFCFGVAFGFFILTSLCSFFNIVLINIIPIIEFPLKILGVAYMLYLAFKIITSKGGAGHNEKNNKNLFTVGIFLQFINPKGILFGLTVVSTFILPYYNSYSSFLLFSLFLGIVGLLSTFSWSLFGSMFQKLLLKHNQLFNIIMAVLLVFSAVSIVIH
protein production: failed

MNRLKKWIRYVPDRIDDGLRYLCGRMSPDVRLVCVVVMLTGFGCLSIYMTVSSIYRIGRHEGEQLQMDHIRRMELYRGINKDSINIKNQVDYGEPKKSGTATGERCNA
protein production: failed

MASRIIFLFSLLIMLGLATGLRGFSALLGFLAFLLLLIIVCQQYRRFLLLFLAILLFLCAWLYGVVQERQNETQLYPLVQSVEGTLISDPELDGDQFSATVKTTDGEKVLIRGRVQAEAEKDKLEMTQIGMVCSFVGQLEIPSEPTNPYQFNYRQFLDNNRIHWIFRTDLTQWQCSDQPTTLFMKVKRWRSEQLQDIYDLASDETAGLIAAFVYGDRSELDGELLSAYQSLGVIHLLAVSGLHVGLVVAAVFYLFIRLGVTRERAYELLLLFLPFYAIVAGAAPSVVRAVGMTMTVLLAFRFQKRLAPIIVLSLVAVIYIIIEPYAIFQLGFQLSFLTTCALLLSSSTLLQAINRPLLSLVKVTFLAQLISMPVILYHFFELPILSVPLNLLFVPVVSFVLLPLSFFVASSLLIHPGVAELPLFILEIIVPIVHQLLLVLNEQSFAAVVIGKPSLNSVFLMMISLIIGWAWLERKEPFKAWGAFSVVLFLIAWQIYSPYWSNEAIVTMIDVGQGDSFLIELPRRKAVYMIDTGGWVTYGEMEPWQERRNTRDIGEQVLTPILKGKGIRGIDKLILTHGHEDHFGGAEGLVRSIKVDEVVYGYKHAEYTEREMEVLSALKKAGASIRFVKSGDQWVIGSSSFRVLSPFGDEEELNDQSVVVYAVIEGVRFLFTGDLEEVGEKRLLEGYGDLKADVLKVGHHGSATSTTDPFLEAVHPVVALISAGRNNLYGHPNQDVLAALEQHETFVLRTDLHGAVKLTIRDGGIYARVMTTD
protein production: failed

PRFLFVHGWGFDRNFWEPVRRAIGQHNGDSLDFGYFGQSKLEYDWSQPFIAVGHSLGFLWLLQQPLAACIQLISINGFSRFFAGSDWPFGVPQRVTKRMQLALHRDAKKTLDQFYETVGFFDTSEKRYDLAALDNGLEFLMTQDNRSIAKKQAHKIAIMASDQDPIVPVSLTKACFPTPTPILWNKDGGHLLPITDPDSCANFIRDVVK
protein production: failed
